In patent publication US20250302974A1, “LECTIN-DRUG CONJUGATES” (UNICHEM LABORATORIES LIMITED, priority 2021, published 2025):

Columns and labels:
[1] = system: ovarian cancer cell line (PA-1); assay: Cytotoxicity assay, cell titer glow luminescence, 72 h; type: cell-based
Method: (§1) T-24 Cell line were cultured in McCoy's 5a Medium Modified supplemented with 10% FBS and the PA-1 Cell line was cultured in EMEM Media supplemented with 10% FBS. The assay was performed by plating 5,000 cells/well and incubated at 37° C. overnight. […] Each concentration was added in triplicate and media-only wells used as a control. After incubation for 72 h cell titer glow (Promega) reagent (50 μL) was added to each well and the plates shaken for 5 mins and the luminescence was recorded. Percent viability was determined by dividing luminescence of the treated well by the non-treated well and multiplying by 100. Data was analysed using non-linear regression with a logarithmic scale.
(§2) 5,000 cells/well were plated and incubated at 37° C. overnight. Conjugates/vehicle control dilutions were made in respective media and added to cells. Volume added: 50 uL to each well. Starting treatment concentration was 1 uM for Conjugate of formula 16 and 18, and control SEQ ID NO: 5 alone and 10% for vehicle control (1×PBS with 20% DMA) and then diluted 10-fold down for a total of 11 treatment dilutions. Each concentration was analysed in triplicates. Media-only wells was used as a control to calculate percent viability. Cell titer glow reagent (volume: 50 uL) was added to each well, the plate was shaken for 5 mins and the luminescence was recorded. Drug Treatment Time: 72 hours. Percent viability was calculated by dividing the luminescence signal obtained for each treated well by the untreated well (media-only control) and multiplying by 100.

[2] = system: human urinary bladder cancer cell line (T-24); assay: as above; type: cell-based
Method: as §1, §2

[3] = Glycan binding study, N-Glycan array containing 100 glycans
A549 Lungs = assay: Cytotoxic effect by MTT assay, 48 h; conditions: for Percent cytotoxicity wrt control: 48 h
Method: (§3) Cells were treated with Test Items at various concentrations (0.0001 μM-10 μM) for 48 h. The cells corresponding to Positive Control group were treated with Doxorubicin at a concentration ranging from 0.1 μM-100 μM. The Untreated cells were used as Control. After 48 h of incubation, the effect of Test Items on cytotoxicity of cells was determined by MTT assay, the plates were taken out and 20 μl of 5 mg/m1 of MTT 3-(4,5-dimethythiazol-2-yl)-2,5-diphenyl tetrazolium bromide solution was added to all the wells. Cells were incubated for 3 h at 37° C. The supernatant was aspirated. 150 μl of DMSO was added to each well to dissolve formazan crystals. The absorbance of each well was then read at 540 nm using Synergy HT micro plate reader.
(§4) The % Cytotoxicity was calculated using the formula:
(§5) Where, X=Absorbance of cells treated with Test Item; R=Absorbance of Control cells (Untreated cells maintained in growth medium only).
(§6) Selectivity Index was calculated using the formula:
(§7) SI=IC50 in Normal cell/IC50 in cancer cell.
(§8) Activity scores of the Selective Index values were categorized as: • Not selective (SI value ≤1) • Moderately selective (1<SI value <5) • Selective (SI value ≥5)

MG-63 Bone = assay: Cytotoxic effect by MTT assay, 48 h; conditions: for Percent cytotoxicity wrt control: 48 h
Method: as §3, §4, §5, §6, §7, §8

MDA-MB-231 Breast = assay: Cytotoxic effect by MTT assay, 48 h; conditions: for Percent cytotoxicity wrt control: 48 h
Method: as §3, §4, §5, §6, §7, §8

KB Cervix = assay: Cytotoxic effect by MTT assay, 48 h; conditions: for Percent cytotoxicity wrt control: KB, 48 h
Method: as §3, §4, §5, §6, §7, §8

AGS Stomach = assay: Cytotoxic effect by MTT assay, 48 h; conditions: for Percent cytotoxicity wrt control: AGS, 48 h
Method: as §3, §4, §5, §6, §7, §8

PANC-1 Pancreatic = assay: Cytotoxic effect by MTT assay, 48 h; conditions: for Percent cytotoxicity wrt control: 48 h
Method: as §3, §4, §5, §6, §7, §8

HT29 Colon = assay: Cytotoxic effect by MTT assay, 48 h; conditions: for Percent cytotoxicity wrt control: 48 h
Method: as §3, §4, §5, §6, §7, §8

U251 MG Brain = assay: Cytotoxic effect by MTT assay, 48 h; conditions: for Percent cytotoxicity wrt control: U251 MG, 48 h
Method: as §3, §4, §5, §6, §7, §8

T24 Bladder = assay: Cytotoxic effect by MTT assay, 48 h; conditions: for Percent cytotoxicity wrt control: 48 h
Method: as §3, §4, §5, §6, §7, §8

PA-1 Ovary = assay: Cytotoxic effect by MTT assay, 48 h; conditions: for Percent cytotoxicity wrt control: 48 h
Method: as §3, §4, §5, §6, §7, §8

B1: SEQ ID NO: 2: recombinant variant of the S. rolfsii lectin amino acid sequence (reported as Rec-2 in WO2010/095143) (protein)
chain: TYKITVRVYQTNPDAFFHPVEKTVWKYANGGTWTITDDQHVLTMGGSGTSGTLRFHADNGESFTATFGVHNYKRWCDIVTNLAADETGMVINQQYYSQKNREEARERQLSNYQVKNAKGRNFQIVYTEAEGNDLHANLIIG
IC50 values, PA-1 Cell line ([1]; 72 h): 20.3 µg/mL | cytotoxic effects below 10 μM concentration ([1]; below 10 μM): does not exhibit major cytotoxic effects | IC50 values, T-24 cell line ([2]; 72 h): 10.4 µg/mL | cytotoxic effects below 10 μM concentration ([2]; below 10 μM): does not exhibit major cytotoxic effects | binding to N-glycans (in words) [3]: specific binding | Percent cytotoxicity wrt control (A549 Lungs; A549, 0.0001 μM): −0.5% | Percent cytotoxicity wrt control (A549 Lungs; A549, 0.001 μM): −15.5% | Percent cytotoxicity wrt control (A549 Lungs; A549, 0.01 μM): −1.1% | Percent cytotoxicity wrt control (A549 Lungs; A549, 0.1 μM): −6.9% | Percent cytotoxicity wrt control (A549 Lungs; A549, 1 μM): 31.9% | Percent cytotoxicity wrt control (A549 Lungs; A549, 10 μM): 48.2% | IC50 (A549 Lungs; read-out: IC50 Values, A549 Lungs, after 48 h of treatment): ≥ 10 µM | Percent cytotoxicity wrt control (MG-63 Bone; MG-63, 0.0001 μM): 27% | Percent cytotoxicity wrt control (MG-63 Bone; MG-63, 0.001 μM): 38.7% | Percent cytotoxicity wrt control (MG-63 Bone; MG-63, 0.01 μM): 50.4% | Percent cytotoxicity wrt control (MG-63 Bone; MG-63, 0.1 μM): 59.1% | Percent cytotoxicity wrt control (MG-63 Bone; MG-63, 1 μM): 72.3% | Percent cytotoxicity wrt control (MG-63 Bone; MG-63, 10 μM): 74% | IC50 (MG-63 Bone; read-out: IC50 Values, MG-63 Bone, after 48 h of treatment): 12.7 nM | Percent cytotoxicity wrt control (MDA-MB-231 Breast; MDA-MB-231, 0.0001 μM): 13.7% | Percent cytotoxicity wrt control (MDA-MB-231 Breast; MDA-MB-231, 0.001 μM): 15.1% | Percent cytotoxicity wrt control (MDA-MB-231 Breast; MDA-MB-231, 0.01 μM): 16.2% | Percent cytotoxicity wrt control (MDA-MB-231 Breast; MDA-MB-231, 0.1 μM): 28.1% | Percent cytotoxicity wrt control (MDA-MB-231 Breast; MDA-MB-231, 1 μM): 48.5% | Percent cytotoxicity wrt control (MDA-MB-231 Breast; MDA-MB-231, 10 μM): 66.4% | IC50 (MDA-MB-231 Breast; read-out: IC50 Values, MDA-MB-231 Breast, after 48 h of treatment): 1350 nM | Percent cytotoxicity wrt control (KB Cervix; 0.0001 μM): −1.5% | Percent cytotoxicity wrt control (KB Cervix; 0.001 μM): −2.6% | Percent cytotoxicity wrt control (KB Cervix; 0.01 μM): −3.9% | Percent cytotoxicity wrt control (KB Cervix; 0.1 μM): 20.4% | Percent cytotoxicity wrt control (KB Cervix; 1 μM): 51.2% | Percent cytotoxicity wrt control (KB Cervix; 10 μM): 54.9% | IC50 (KB Cervix; read-out: IC50 Values, KB Cervix, after 48 h of treatment): 880 nM | Percent cytotoxicity wrt control (AGS Stomach; 0.0001 μM): 7.8% | Percent cytotoxicity wrt control (AGS Stomach; 0.001 μM): 8.5% | Percent cytotoxicity wrt control (AGS Stomach; 0.01 μM): 15.9% | Percent cytotoxicity wrt control (AGS Stomach; 0.1 μM): 37% | Percent cytotoxicity wrt control (AGS Stomach; 1 μM): 49.9% | Percent cytotoxicity wrt control (AGS Stomach; 10 μM): 57.2% | IC50 (AGS Stomach; read-out: IC50 Values, AGS Stomach, after 48 h of treatment): 1720 nM | Percent cytotoxicity wrt control (PANC-1 Pancreatic; PANC-1, 0.0001 μM): 9.5% | Percent cytotoxicity wrt control (PANC-1 Pancreatic; PANC-1, 0.001 μM): 17% | Percent cytotoxicity wrt control (PANC-1 Pancreatic; PANC-1, 0.01 μM): 20.5% | Percent cytotoxicity wrt control (PANC-1 Pancreatic; PANC-1, 0.1 μM): 22.5% | Percent cytotoxicity wrt control (PANC-1 Pancreatic; PANC-1, 1 μM): 34.4% | Percent cytotoxicity wrt control (PANC-1 Pancreatic; PANC-1, 10 μM): 36.4% | IC50 (PANC-1 Pancreatic; read-out: IC50 Values, PANC-1 Pancreatic, after 48 h of treatment): > 10 µM | Percent cytotoxicity wrt control (HT29 Colon; HT29, 0.0001 μM): 14% | Percent cytotoxicity wrt control (HT29 Colon; HT29, 0.001 μM): 16.6% | Percent cytotoxicity wrt control (HT29 Colon; HT29, 0.01 μM): 22.5% | Percent cytotoxicity wrt control (HT29 Colon; HT29, 0.1 μM): 24.7% | Percent cytotoxicity wrt control (HT29 Colon; HT29, 1 μM): 35.4% | Percent cytotoxicity wrt control (HT29 Colon; HT29, 10 μM): 54.1% | IC50 (HT29 Colon; read-out: IC50 Values, HT29 Colon, after 48 h of treatment): 9.39 µM | Percent cytotoxicity wrt control (U251 MG Brain; 0.0001 μM): −9.9% | Percent cytotoxicity wrt control (U251 MG Brain; 0.001 μM): −13.2% | Percent cytotoxicity wrt control (U251 MG Brain; 0.01 μM): −14.5% | Percent cytotoxicity wrt control (U251 MG Brain; 0.1 μM): −5.3% | Percent cytotoxicity wrt control (U251 MG Brain; 1 μM): 15.9% | Percent cytotoxicity wrt control (U251 MG Brain; 10 μM): 62.5% | IC50 (U251 MG Brain; read-out: IC50 Values, U251 MG Brain, after 48 h of treatment): 5.95 µM | Percent cytotoxicity wrt control (T24 Bladder; T24, 0.0001 μM): 9.7% | Percent cytotoxicity wrt control (T24 Bladder; T24, 0.001 μM): 11.1% | Percent cytotoxicity wrt control (T24 Bladder; T24, 0.01 μM): 9.1% | Percent cytotoxicity wrt control (T24 Bladder; T24, 0.1 μM): 10.5% | Percent cytotoxicity wrt control (T24 Bladder; T24, 1 μM): 43.1% | Percent cytotoxicity wrt control (T24 Bladder; T24, 10 μM): 68.7% | IC50 (T24 Bladder; read-out: IC50 Values, T24 Bladder, after 48 h of treatment): 2130 nM | Percent cytotoxicity wrt control (PA-1 Ovary; PA-1, 0.0001 μM): 0.9% | Percent cytotoxicity wrt control (PA-1 Ovary; PA-1, 0.001 μM): −5.6% | Percent cytotoxicity wrt control (PA-1 Ovary; PA-1, 0.01 μM): 7.4% | Percent cytotoxicity wrt control (PA-1 Ovary; PA-1, 0.1 μM): 4.5% | Percent cytotoxicity wrt control (PA-1 Ovary; PA-1, 1 μM): 51% | Percent cytotoxicity wrt control (PA-1 Ovary; PA-1, 10 μM): 72.2% | IC50 (PA-1 Ovary; read-out: IC50 Values, PA-1 Ovary, after 48 h of treatment): 1540 nM
